Paper doi:10.1101/2021.01.30.428938
Where “and” joins values, the source holds several entries; their conditions need not be identical. Equal values may be shown once.

How the values were obtained:
[1] = biological target: Theileria parva schizont antigen Tp2, full-length native, bacterially expressed with His-tag (Theileria parva (Muguga)); assay: SEC-MALS
[2] = biological target: Theileria parva schizont antigen Tp2, full-length native, bacterially expressed with His-tag (Theileria parva (Muguga)); assay: SEC

## Theileria parva schizont antigen Tp2, full-length native, bacterially expressed with His-tag (natural protein)
[1]
  stoichiometry N: 2
[2]
  stoichiometry N: 4 and 2
